Assay results as given in patent US20240424125A1.

What was measured:
[1] = molecular target: human FRα on cells (human) (UniProt P15328); experiment: flow cytometry competition on H2110 cells; competitor: v23924; first of two values
[2] = molecular target: human FRα on cells (human) (UniProt P15328); experiment: flow cytometry competition on H2110 cells; competitor: v23924; second of two values
[3] = molecular target: human FRα on cells (human) (UniProt P15328); experiment: flow cytometry competition on H2110 cells; competitor: Mirvetuximab; first of two values
[4] = molecular target: human FRα on cells (human) (UniProt P15328); experiment: flow cytometry competition on H2110 cells; competitor: Mirvetuximab; second of two values
[5] = molecular target: human FRα on cells (human) (UniProt P15328); experiment: flow cytometry competition on H2110 cells; competitor: Farletuzumab (self); first of two values
[6] = molecular target: human FRα on cells (human) (UniProt P15328); experiment: flow cytometry competition on H2110 cells; competitor: Farletuzumab (self); second of two values
[7] = molecular target: human FRα on cells (human) (UniProt P15328); experiment: flow cytometry competition on H2110 cells; competitor: Farletuzumab; first of two values
[8] = molecular target: human FRα on cells (human) (UniProt P15328); experiment: flow cytometry competition on H2110 cells; competitor: Farletuzumab; second of two values
[9] = molecular target: human FRα on cells (human) (UniProt P15328); experiment: flow cytometry competition on H2110 cells; competitor: Mirvetuximab (self); first of two values
[10] = molecular target: human FRα on cells (human) (UniProt P15328); experiment: flow cytometry competition on H2110 cells; competitor: Mirvetuximab (self); second of two values

human FRα on cells (human), sequence (P15328 25-234 limits assumed): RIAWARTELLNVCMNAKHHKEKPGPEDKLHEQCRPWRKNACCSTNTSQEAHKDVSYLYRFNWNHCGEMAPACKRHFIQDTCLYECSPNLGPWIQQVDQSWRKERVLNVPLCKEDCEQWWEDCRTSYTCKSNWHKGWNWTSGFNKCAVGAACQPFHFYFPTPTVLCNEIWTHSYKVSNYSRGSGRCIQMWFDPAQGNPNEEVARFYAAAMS

% Competition Binding [1] [%] | % Competition Binding [2] [%] | % Competition Binding [3] [%] | % Competition Binding [4] [%] | % Competition Binding [5] [%] | % Competition Binding [6] [%] | % Competition Binding [7] [%] | % Competition Binding [8] [%] | % Competition Binding [9] [%] | % Competition Binding [10] [%] | Binder
99 | 72 | 91 | 75 | 98 | 100 | – | – | – | – | farletuzumab (v31629) (antibody, part only; not given: constant regions, V domains shown, not shown: another chain or arm of the molecule) VH: EVQLVESGGGVVQPGRSLRLSCSASGFTFSGYGLSWVRQAPGKGLEWVAMISSGGSYTYYADSVKGRFAISRDNAKNTLFLQMDSLRPEDTGVYFCARHGDDPAWFAYWGQGTPVTVSS VL: DIQLTQSPSSLSASVGDRVTITCSVSSSISSNNLHWYQQKPGKAPKPWIYGTSNLASGVPSRFSGSGSGTDYTFTISSLQPEDIATYYCQQWSSYPYMYTFGQGTKVEIK
13 | 7 | – | – | – | – | 99 | 100 | 100 | 98 | mirvetuximab (v17716) (antibody, part only; not given: constant regions, V domains shown, not shown: another chain or arm of the molecule) VH: QVQLVQSGAEVVKPGASVKISCKASGYTFTGYFMNWVKQSPGQSLEWIGRIHPYDGDTFYNQKFQGKATLTVDKSSNTAHMELLSLTSEDFAVYYCTRYDGSRAMDYWGQGTTVTVSS VL: DIVLTQSPLSLAVSLGQPAIISCKASQSVSFAGTSLMHWYHQKPGQQPRLLIYRASNLEAGVPDRFSGSGSKTDFTLTISPVEAEDAATYYCQQSREYPYTFGGGTKLEIK
